Test results taken from US20070066522A1 (MICHIGAN STATE UNIVERSITY, published 2007).

Biological target: T1, c-Cbl (endogenous, in PH3MT cell lysates) (human, UniProt P22681 1-906)
T1 construct: also called c-Cbl E3 ubiquitin ligase; CB1
Assay: method not described; Ras-transformed cells

B1: Sprouty2 (endogenous, in PH3MT human fibroblast lysates) (other)
chain: MEARAQSGNGSQPLLQTPRDGGRQRGEPDPRDALTQQVHVLSLDQIRAIRNTNEYTEGPTVVPRPGLKPAPRPSTQHKHERLHGLPEHRQPPRLQHSQVHSSARAPLSRSISTVSSGSRSSTRTSTSSSSSEQRLLGSSFSSGPVADGIIRVQPKSELKPGELKPLSKEDLGLHAYRCEDCGKCKCKECTYPRPLPSDWICDKQCLCSAQNVIDYGTCVCCVKGLFYHCSNDDEDNCADNPCSCSQSHCCTRWSAMGVMSLFLPCLWCYLPAKGCLKLCQGCYDRVNRPGCRCKNSNTVCCKVPTVPPRNFEKPT
notes: Endogenous protein of the H-Ras-transformed human fibroblast strain PH3MT; also called Spry2; human Sprouty-2
- binding result: binds
